The target in test [1] is F137L/E363G variant of S. pyogenes enolase (S. pyogenes) (UniProt P69949). Nature of the test: AUC; sedimentation velocity, 15°C; 2.7 µM enolase incubated 18 h at 15°C in TME with NaClO4 (up to 0.4 M); octamer to monomers.
Test [2] shares this target. Briefly: AUC; sedimentation velocity, 20°C; pH 7.4, 50 mM Tris with 1 mM Mg(OAc)2 and 0.1 mM EDTA.
For test [3] the target is unchanged. Briefly: AUC; sedimentation velocity, 20°C; pH 9.0, 50 mM Tris or glycine with 1 mM Mg(OAc)2 and 0.1 mM EDTA; octamer to monomers.
Test [4] has the same target. Briefly: AUC; sedimentation velocity; 19.4 µM enolase after incubation in 0.2 M NaClO4; octamer to monomers.
Test [5] has the same target. Nature of the test: AUC; sedimentation velocity; 22.7 µM enolase in TME with varying NaClO4; octamer to monomers.
Test [6] has the same target. Briefly: AUC; sedimentation velocity; 19.4 µM enolase incubated in 0.2 M NaClO4, then dialysed 24 hours against buffer (reassociation).

Regarding “F137L/E363G variant of S. pyogenes enolase (from UniProt P69949 1-435) (enzyme)”, in test [1], the NaClO4 concentration at 50% dissociation is 0.06 M. Moreover, in test [2], the percent octameric is 88% and the stoichiometry N is 8. In test [3], this substance had a percent monomeric of 54% and a percent octameric of 39%. For the same substance, the percent octameric in 0.2 M NaClO4 in test [4] is 21%. The same substance showed a NaClO4 concentration at 50% dissociation in test [5] of 0.12 M. In addition, in test [6], the percent octameric after dialysis against buffer amounted to 77%.
